This note sets out measurements from patent US20240279344A1 (CDR LIFE, published 2024).

“And” between values parts separate entries of the source, which are not always exact repeats. Equal values may be shown once.

First the molecules themselves.
B1: M1116 (bispecific antibody, V domains shown)
VH: EVQLLESGGGSVQPGGSLRLSCTVSGFSLSNYAMSWVRQAPGKGLEWIGIVSSGGTTYYASWAKGRFTISKDTSKNTVYLQMNSLRAEDTASYYCAKDLYYGPTTYSAANLWGQGTSVTVSS
VL: SYELTQPPSVSVSPGQTASITCTADTLSRSYASWYQQKPGQSPVLVIYRDTSRPSGIPERFSGSNSGNTATLTISGTQAMDEADYYCATRPSSGSNFQLFGGGTKLTVL
notes: Variant of humanized M0763; tested in SPR as anti-CD3 Fab x anti-MAGE-A4 scFv bispecific
B2: M1040 (bispecific antibody, V domains shown)
VH: ESQVLESGGGSVQPGGSLRLSCTVSGFSLSNYAMSWVRQAPGKGLEYIGIVSSGGTTYYASWAKGRFTISKDTSKNTVYLQMNSLRAEDTASYYCAKDLYYGPTTYHQLNLWGQGTSVTVSS
VL: SYELTQPPSVSVSPGQTASITCTADTLSRSYASWYQQKPGQSPVLVIYRDTSRPSGIPERFSGSNSGNTATLTISGTQAMDEADYYCATSDGSGSNFQLFGGGTKLTVL
notes: as for B1
B3: M1041 (bispecific antibody, V domains shown)
VH: ESQVLESGGGSVQPGGSLRLSCTVSGFSLSNYAMSWVRQAPGKGLEYIGIVSSGGTTYYASWAKGRFTISKDTSKNTVYLQMNSLRAEDTASYYCAKDLYYGPTTYSAFNLWGQGTSVTVSS
VL: SYELTQPPSVSVSPGQTASITCTADTLSRSYASWYQQKPGQSPVLVIYRDTSRPSGIPERFSGSNSGNTATLTISGTQAMDEADYYCATRPSSGSNFQLFGGGTKLTVL
notes: as for B1
B4: M1100 (bispecific antibody, V domains shown)
VH: EVQLLESGGGSVQPGGSLRLSCTVSGFSLSNYAMSWVRQAPGKGLEWIGIVSSGGTTYYASWAKGRFTISKDTSKNTVYLQMNSLRAEDTASYYCAKDLYYGPTTYHDLNLWGQGTSVTVSS
VL: SYELTQPPSVSVSPGQTASITCTADTLSRSYASWYQQKPGQSPVLVIYRDTSRPSGIPERFSGSNSGNTATLTISGTQAMDEADYYCATRPSSGSNFQLFGGGTKLTVL
notes: as for B1
B5: M1036 (bispecific antibody, V domains shown)
VH: ESQVLESGGGSVQPGGSLRLSCTVSGFSLSNYAMSWVRQAPGKGLEYIGIVSSGGTTYYASWAKGRFTISKDTSKNTVYLQMNSLRAEDTASYYCAKDLYYGPTTQSAFNLWGQGTSVTVSS
VL: SYELTQPPSVSVSPGQTASITCTADTLSRSYASWYQQKPGQSPVLVIYRDTSRPSGIPERFSGSNSGNTATLTISGTQAMDEADYYCATSDGSGSNFQLFGGGTKLTVL
notes: as for B1
B6: M1099 (bispecific antibody, V domains shown)
VH: EVQLLESGGGSVQPGGSLRLSCTVSGFSLSNYAMSWVRQAPGKGLEWIGIVSSGGTTYYASWAKGRFTISKDTSKNTVYLQMNSLRAEDTASYYCAKNVYYGPTTQSAFNLWGQGTSVTVSS
VL: SYELTQPPSVSVSPGQTASITCTADTLSRSYASWYQQKPGQSPVLVIYRDTSRPSGIPERFSGSNSGNTATLTISGTQAMDEADYYCATSDGSGSNFQLFGGGTKLTVL
notes: as for B1
B7: M1089 (bispecific antibody, V domains shown)
VH: EVQLLESGGGSVQPGGSLRLSCTVSGFSLSNYAMSWVRQAPGKGLEWIGIVSSGGTTYYASWAKGRFTISKDTSKNTVYLQMNSLRAEDTASYYCAKDLYYGPTTYSAFNLWGQGTSVTVSS
VL: SYELTQPPSVSVSPGQTASITCTADTLSRSYASWYQQKPGQSPVLVIYRDTSRPSGIPERFSGSNSGNTATLTISGTQAMDEADYYCATRPASGSNFQLFGGGTKLTVL
notes: as for B1
B8: M1090 (bispecific antibody, V domains shown)
VH: EVQLLESGGGSVQPGGSLRLSCTVSGFSLSNYAMSWVRQAPGKGLEWIGIVSSGGTTYYASWAKGRFTISKDTSKNTVYLQMNSLRAEDTASYYCAKDLYYGPTTYSAFNLWGQGTSVTVSS
VL: SYELTQPPSVSVSPGQTASITCTADTLSRSYASWYQQKPGQSPVLVIYRDTSRPSGIPERFSGSNSGNTATLTISGTQAMDEADYYCATKPSSGSNFQLFGGGTKLTVL
notes: as for B1
B9: M1098 (bispecific antibody, V domains shown)
VH: EVQLLESGGGSVQPGGSLRLSCTVSGFSLSNYAMSWVRQAPGKGLEWIGIVSSGGTTYYASWAKGRFTISKDTSKNTVYLQMNSLRAEDTASYYCAKNVYYGPTTQSAFNLWGQGTSVTVSS
VL: SYELTQPPSVSVSPGQTASITCTADTLSRSYASWYQQKPGQSPVLVIYRDTSRPSGIPERFSGSNSGNTATLTISGTQAMDEADYYCATRPSSGSNFQLFGGGTKLTVL
notes: as for B1
B10: M1101 (bispecific antibody, V domains shown)
VH: EVQLLESGGGSVQPGGSLRLSCTVSGFSLSNYAMSWVRQAPGKGLEWIGIVSSGGRKRYASWAKGRFTISKDTSKNTVYLQMNSLRAEDTASYYCAKDLYYGPTTYSAFNLWGQGTSVTVSS
VL: SYELTQPPSVSVSPGQTASITCTADTLSRSYASWYQQKPGQSPVLVIYRDTSRPSGIPERFSGSNSGNTATLTISGTQAMDEADYYCATRPSSGSNFQLFGGGTKLTVL
notes: as for B1
B11: M1096 (bispecific antibody, V domains shown)
VH: EVQLLESGGGSVQPGGSLRLSCTVSGFSLSNYAMSWVRQAPGKGLEWIGIVSSGGTTYYASWAKGRFTISKDTSKNTVYLQMNSLRAEDTASYYCAKDLYYGPTTQSAFNLWGQGTSVTVSS
VL: SYELTQPPSVSVSPGQTASITCTADTLSRSYASWYQQKPGQSPVLVIYRDTSRPSGIPERFSGSNSGNTATLTISGTQAMDEADYYCATRPSSGSNFQLFGGGTKLTVL
notes: as for B1
B12: M1088 (bispecific antibody, V domains shown)
VH: EVQLLESGGGSVQPGGSLRLSCTVSGFSLSNYAMSWVRQAPGKGLEWIGIVSSGGTTYYASWAKGRFTISKDTSKNTVYLQMNSLRAEDTASYYCAKDLYYGPTTYSAFNLWGQGTSVTVSS
VL: SYELTQPPSVSVSPGQTASITCTADTLSRSYASWYQQKPGQSPVLVIYRDTSRPSGIPERFSGSNSGNTATLTISGTQAMDEADYYCATRPGSGSNFQLFGGGTKLTVL
notes: as for B1
B13: M1038 (bispecific antibody, V domains shown)
VH: ESQVLESGGGSVQPGGSLRLSCTVSGFSLSNYAMSWVRQAPGKGLEYIGIVSSGGTTYYASWAKGRFTISKDTSKNTVYLQMNSLRAEDTASYYCAKNVYYGPTTYSAFNLWGQGTSVTVSS
VL: SYELTQPPSVSVSPGQTASITCTADTLSRSYASWYQQKPGQSPVLVIYRDTSRPSGIPERFSGSNSGNTATLTISGTQAMDEADYYCATSDGSGSNFQLFGGGTKLTVL
notes: as for B1
B14: M1108 (bispecific antibody, V domains shown)
VH: EVQLLESGGGSVQPGGSLRLSCTVSGFSLSNYAMSWVRQAPGKGLEWIGIVSSGGTTYYASWAKGRFTISKDTSKNTVYLQMNSLRAEDTASYYCAKDLYAGPTTYSAFNLWGQGTSVTVSS
VL: SYELTQPPSVSVSPGQTASITCTADTLSRSYASWYQQKPGQSPVLVIYRDTSRPSGIPERFSGSNSGNTATLTISGTQAMDEADYYCATRPSSGSNFQLFGGGTKLTVL
notes: as for B1
B15: M1107 (bispecific antibody, V domains shown)
VH: EVQLLESGGGSVQPGGSLRLSCTVSGFSLSNYAMSWVRQAPGKGLEWIGIVSSGGTTYYASWAKGRFTISKDTSKNTVYLQMNSLRAEDTASYYCAKDLAYGPTTYSAFNLWGQGTSVTVSS
VL: SYELTQPPSVSVSPGQTASITCTADTLSRSYASWYQQKPGQSPVLVIYRDTSRPSGIPERFSGSNSGNTATLTISGTQAMDEADYYCATRPSSGSNFQLFGGGTKLTVL
notes: as for B1
B16: M1086 (bispecific antibody, V domains shown)
VH: EVQLLESGGGSVQPGGSLRLSCTVSGFSLSNYAMSWVRQAPGKGLEWIGIVSSGGTTYYASWAKGRFTISKDTSKNTVYLQMNSLRAEDTASYYCAKDLYYGPTTYSAFNLWGQGTSVTVSS
VL: SYELTQPPSVSVSPGQTASITCTADTLSRSYASWYQQKPGQSPVLVIYRDTSRPSGIPERFSGSNSGNTATLTISGTQAMDEADYYCATSPSSGSNFQLFGGGTKLTVL
notes: as for B1
B17: M1037 (bispecific antibody, V domains shown)
VH: ESQVLESGGGSVQPGGSLRLSCTVSGFSLSNYAMSWVRQAPGKGLEYIGIVSSGGTTYYASWAKGRFTISKDTSKNTVYLQMNSLRAEDTASYYCAKDLYYGPTTYHDLNLWGQGTSVTVSS
VL: SYELTQPPSVSVSPGQTASITCTADTLSRSYASWYQQKPGQSPVLVIYRDTSRPSGIPERFSGSNSGNTATLTISGTQAMDEADYYCATSDGSGSNFQLFGGGTKLTVL
notes: as for B1
B18: M1097 (bispecific antibody, V domains shown)
VH: EVQLLESGGGSVQPGGSLRLSCTVSGFSLSNYAMSWVRQAPGKGLEWIGIVSSGGTTYYASWAKGRFTISKDTSKNTVYLQMNSLRAEDTASYYCAKNVYYGPTTYSAFNLWGQGTSVTVSS
VL: SYELTQPPSVSVSPGQTASITCTADTLSRSYASWYQQKPGQSPVLVIYRDTSRPSGIPERFSGSNSGNTATLTISGTQAMDEADYYCATRPSSGSNFQLFGGGTKLTVL
notes: as for B1
B19: M1087 (bispecific antibody, V domains shown)
VH: EVQLLESGGGSVQPGGSLRLSCTVSGFSLSNYAMSWVRQAPGKGLEWIGIVSSGGTTYYASWAKGRFTISKDTSKNTVYLQMNSLRAEDTASYYCAKDLYYGPTTYSAFNLWGQGTSVTVSS
VL: SYELTQPPSVSVSPGQTASITCTADTLSRSYASWYQQKPGQSPVLVIYRDTSRPSGIPERFSGSNSGNTATLTISGTQAMDEADYYCATRDSSGSNFQLFGGGTKLTVL
notes: as for B1
B20: M1105 (bispecific antibody, V domains shown)
VH: EVQLLESGGGSVQPGGSLRLSCTVSGFSLSNYAMSWVRQAPGKGLEWIGIVSSGGTTYYASWAKGRFTISKDTSKNTVYLQMNSLRAEDTASYYCAKALYYGPTTYSAFNLWGQGTSVTVSS
VL: SYELTQPPSVSVSPGQTASITCTADTLSRSYASWYQQKPGQSPVLVIYRDTSRPSGIPERFSGSNSGNTATLTISGTQAMDEADYYCATRPSSGSNFQLFGGGTKLTVL
notes: as for B1
B21: M1051 (bispecific antibody, V domains shown)
VH: ESQVLESGGGSVQPGGSLRLSCTVSGFSLSNYAMSWVRQAPGKGLEYIGIVSSGGRKRYASWAKGRFTISKDTSKNTVYLQMNSLRAEDTASYYCAKDLYYGPTTYSAFNLWGQGTSVTVSS
VL: SYELTQPPSVSVSPGQTASITCTADTLSRSYASWYQQKPGQSPVLVIYRDTSRPSGIPERFSGSNSGNTATLTISGTQAMDEADYYCATSDGSGSNFQLFGGGTKLTVL
notes: as for B1

The target of the assay is T1, HLA-A2/MAGE-A4 complex, recombinant (HLA-A*02:01 extracellular domain, human b2m, MAGE-A4 peptide 230-239 …) (human, UniProt P04439 25-299 at identity 0.94); P61769 21-119).
T1 construct: also called MAGE-A4 pMHC; MAGE-A4/HLA-A2 complex
The assay is described as follows: SPR, monovalent.
Turning to B1, the Kd is 3.88 nM.

With B2, the Kd is 0.45 nM.

Consider B3, for which the Kd stood at 0.24 nM.

Take B4: the Kd amounted to 0.66 nM.

For B5, the Kd is 4.9 nM.

In the case of B6, the Kd worked out at 2.13 nM.

Take B7: the Kd was 1.34 nM and 0.79 nM.

With B8, the Kd is 1.8 nM.

For the molecule B9, the Kd was 1.73 nM.

B10: the Kd was 1.69 nM.

With B11, the Kd is 3.23 nM.

Consider B12, for which the Kd was determined as 3.9 nM.

On to B13, for which the Kd is 3.6 nM.

On to B14, for which the Kd was 19 nM.

B15: the Kd is 1.45 nM.

With B16, the Kd turned out to be 7.02 nM.

For B17, the Kd was determined as 0.4 nM.

Turning to B18, the Kd was 0.99 nM.

B19: the Kd was 0.82 nM.

As for B20, the Kd came to 4.12 nM.

In the case of B21, the Kd came out at 5 nM.
